The assay has as its target HPV16 pseudovirions (human papillomavirus type 16) (UniProt P03101).

“RTD-4 (from UniProt P82270 65-76) (peptide)”: the IC50 of inhibition of HPV16 PsV infection of HeLa cells (PsV pretreated with the defensin) came to 101 µM.

Turning to “Rhesus Theta Defensin-1 (from UniProt P82270 65-76; P82271 65-76) (peptide)”, the IC50 of inhibition of HPV16 PsV infection of HeLa cells (PsV pretreated with the defensin) is 14 µM.

Consider α-defensin HD5 (peptide), for which the IC50 of inhibition of HPV16 PsV infection of HeLa cells (PsV pretreated with the defensin) turned out to be 26 µM.
